Drawing on patent US20250340623A1 (AC IMMUNE, published 2025), this text covers koff, kon and Kd for nine molecules.

Changes are numbered by the printed parent chain.

B1: ACI-1108H1_4303A3 (bispecific antibody, V domains shown)
VH 1: EVKLVESGGGLVQPGGSMKLSCTASGFTFSDAWMNWVRQSPEKGLEWVAEIRNKAHNHATNYAESVKGRFTISGDDSKSSVYLQMNNLRAEDTGIYYCTIYSFWGQGTLVTVSA
VL 1: SIVMTQTPKFLLVSAGDRVTITCKASQSVTNYVAWYHQKPGQSPKLLIYSASNRYSGVPDRFTGSGYGTDFTFTINTVQTEDLAVYFCQQDYRIPYTFGGGTKLEIK
VH 2: QVQLQQSGAELVRPGASVTLSCKASGYTFTDYEMHWVKQTPVHGLEWIGVIDPETGGAVQNQKFKGKAILTADNSSSTAYMDLRSLTSEDSAVYNCAMGAALRLAYWGQGTLVTVSS
VL 2: DVLMTQTPLSLPVSLGDQASISCRSSQSIVHSNGNSYLEWYLQKPGQSPKLLIYKVSNRFSGVPDRFSGSGSGTDFTLKINRVEAEDLGVYYCFQGSHVPFTFGSGTKLEIK
notes: biparatopic; Arm A ACI-7067-1108H1-Ab1, Arm B ACI-7088-4303A3-Ab1; engineered constant domains not specified
B2: ACI-1101C8_5A12 (bispecific antibody, V domains shown)
VH 1: EVQLVESGGGLVQPKGSLKLSCAASGFSFNIYAMNWVRQAPGKGLEWVARIRSKSNNYATYYADSVKDRFTISRADSESMLYLQMNNLKTEDTAMYYCVRVGLRFYAMDYWGQGTSVTVSS
VL 1: B1 VL 2 with S36T, N81S, H98Q, V99G, F101L, S105A, I111L
VH 2: QVHLKQSGADLVRPGASVKLSCKASGYTFTDYYINWVKQRPGQGLEWIARIYPGSGNTYYNEKFKGRATLSAEKSSTTAYMQLSSLTSEDSAVYFCVVGYYGAWGQGTTLTVSS
VL 2: DVVMTQTPLSLPVSLGDQASISCRSSQSLVHSNGKTHLHWYLQKPGQSPKLLIYKVSNRFSGVPDRFSGSGSGTDFTLKISRVEAEDLGVYFCSQSTHVPWTFGGGTKLEIK
notes: biparatopic; Arm A ACI-7067-1101C8-Ab2, Arm B ACI-8033-5A12-Ab1; engineered constant domains not specified
B3: ACI-4317A4_1113D10 (bispecific antibody, V domains shown)
VH 1: EVQLQQSGAELVRPGASVKLSCTASGFNIKDDYMHWVKQRPEQGLEWIGWIDPENGDTEYASKFQGKATMTADTSSNTAYLQLSSLTSEDTAVYYCKTWGTTQALFPYWGQGTLVTVSA
VL 1: DIVMTQSQKFMYTSVGDRVSITCKASQNVGNAVGWYQQKAGQSPKLLIHSASNRYTGVPDRFTGTGSGTDFTLTINNMQSEDLADYFCQQYRSYPLTFGAGTKLELK
VH 2: EVQLVESGGGLVQPKGSLKLSCAASGFTFNTYALHWVRQAPGKGLEWVARIRSKSSNYATYYADSVKDRFTISRDDSQSMLYLQMNNLKTEDTGMYYCVRGGVSPFDYWGQGTTLTVSS
VL 2: QIVLTQSPAIMSASPGEKVTMTCSASSSVSYMHWYQQKSGTSPKRWIYDTSKLASGVPARFSGSGSGTSYSLTISSMEAEDSATYYCQQWSNNPPTFGGGTKLEIK
notes: biparatopic; Arm A ACI-7088-4317A4-Ab1, Arm B ACI-7067-1113D10-Ab1; engineered constant domains not specified
B4: ACI-3108C10_5A12 (bispecific antibody, V domains shown)
VH 1: ELQLVESGGGLVRPGGSLKLSCATSGFTFRNYAMSWVRQTPAKRLEWVATISDGGTYTFYSDNVKGRFTISRDNVKNTLYLQMSHLKSEDTAMYYCSRAGSGHWGQGTTLTVSS
VL 1: not shown
VH 2: B2 VH 2
VL 2: B2 VL 2
notes: biparatopic; Arm A ACI-7079-3108C10-Ab2, Arm B ACI-8033-5A12-Ab1; engineered constant domains not specified
B5: ACI-3108C10_3112H1 (bispecific antibody, V domains shown)
VH 1: B4 VH 1
VL 1: not shown
VH 2: EVQLQQSGPELVKPGASVKISCKASGYTFSDYFMNWVKQSHGKSLEWIGDINPNNGGSSYIQKFKGKATLTVDKSSTTAYMELRSLTSEDSAVYYCARGSNYAMDSWGQGTSVTVSS
VL 2: DIVMSQSPSSLAVSAGEKVTMSCKSSQSLLNSRTRKNYLAWYQQKPGQSPKLLIYWASTRESGVPDRFTGSGSGTDFTLTISSVQAEDLAVYYCKQSYDLWTFGGGTKLEIK
notes: biparatopic; Arm A ACI-7079-3108C10-Ab2, Arm B ACI-7079-3112H1-Ab1; engineered constant domains not specified
B6: ACI-3112H1_3108C10 (bispecific antibody, V domains shown)
VH 1: B5 VH 2
VL 1: B5 VL 2
VH 2: B4 VH 1
VL 2: not shown
notes: biparatopic; Arm A ACI-7079-3112H1-Ab1, Arm B ACI-7079-3108C10-Ab2; engineered constant domains not specified
B7: ACI-4301H3_3108C10 (bispecific antibody, V domains shown)
VH 1: B5 VH 2 with S30A, S58T, S59T, I61N, T77N, S100R, S106Y
VL 1: B5 VL 2 with W56S, S73F
VH 2: B4 VH 1
VL 2: not shown
notes: biparatopic; Arm A ACI-7088-4301H3-Ab2, Arm B ACI-7079-3108C10-Ab2; engineered constant domains not specified
B8: ACI-8033-6402E2-Ab2 (antibody, V domains shown)
VH: EVQLQHSGPDLVKPGASVKISCKASGYTFTDYYMNWVKQSHGKSLEWIGDINPNNGDTTYNQKFKGRATLTVDKSSSTAYMELRSLTSEDSAVYYCARSGSNYYAMDSWGQGTSVTVSS
VL: B5 VL 2 with K18R, L30F, T78S, T80N
notes: mouse hybridoma mAb; VH/VL only; also called 6402E2E4
B9: ACI-8033-6403A4-Ab1 (antibody, V domains shown)
VH: EVQLVESGGGLVQPKGSLKLSCAASGFSFNTYAMNWVRQAPGKGLEWVARIRSKSNNYTTYYADSVKDRFTISRDDSESMLYLQMNNLKTEDTAMYYCVRTMDYWGQGTSVTVSS
VL: QIVLTQSPAIMSASLGEEITLTCSASSSISYMHWYQQKSGTSPKLLIHSTFNLASGVPSRFSGSGSGTFYSLTISSVEAEDAADYYCHQWSSYYTFGGGTKLEIK
notes: mouse hybridoma mAb; VH/VL only; also called 6403A4A3

One experiment deals with T1, monomeric alpha-synuclein (UniProt P37840 1-140). The experiment in a line: SPR, captured bAb. Here is the method:
(§1) Any non-covalently bound antibodies were removed by three successive regenerations of 10 mM Glycine pH 1.7 (GE Healthcare, 28-9950-84). Immobilization levels were evaluated following ethanolamine capping (Bound) and finally following regeneration (Final). Non-covalent immobilization of alpha-synuclein biparatopic antibodies on flow cell 2 of channels 1-8 was performed at a final concentration of 5 μg/mL, diluted in 10 mM sodium acetate pH 5.5 (GE Healthcare, BR-1003-52). Non-covalent immobilization of an isotype control antibody on flow cell 1 of channels 1-8 was performed at a final concentration of 5 μg/mL, diluted in 10 mM sodium acetate pH 5.5 (GE Healthcare, BR-1003-52).
(§2) Binding affinity of alpha-synuclein biparatopic antibodies to monomeric or fibrillar alpha-synuclein species was performed using a single-cycle kinetics method. The instrument was primed with 1×HBS-P+ buffer (10× stock from GE Healthcare, BR-1003-52 diluted in Milli-Q water). Injections of monomeric alpha-synuclein (Boston Biochem, SP-485), increasing in concentration from 0.62-50 nM prepared from serial 2-fold dilutions, were performed with contact times of 300 sec/injection at a flow rate of 30 μL/min. A dissociation phase of 900 sec followed the final 50 nM injection. Regeneration of the sensor to the goat anti-human antibody layer was achieved using 3 regenerations of 10 mM Glycine pH 1.7. […] Regeneration of the sensor to the goat anti-mouse antibody layer was achieved using 3 regenerations of 10 mM Glycine pH 1.7. Results obtained from single-cycle kinetics were evaluated by Biacore 8K evaluation software with 1:1 binding homogenous Langmuir model with a preceeding buffer injection as a blank subtraction. The following kinetic parameters were obtained: on-rate (ka), off-rate (kd), affinity constant (KD, ratio of kd by ka), maximum response (Rmax), and goodness of fit (Chi2).
(§3) Kinetic constants were determined from 1:1 homogenous binding models for all cases.
On the technique in general: SPR reads the build-up and loss of mass on a sensor chip optically.
B1 showed a koff of 0.00129 s⁻¹ and a kon of 1.43e+06 M⁻¹ s⁻¹.
For B2, in that order: 0.0042 s⁻¹ and 1.1e+06 M⁻¹ s⁻¹.
For the molecule B3, the koff came to 0.000675 s⁻¹ and the kon worked out at 1.39e+06 M⁻¹ s⁻¹.
For B4, in that order: 8.05 s⁻¹ and 9.13e+08 M⁻¹ s⁻¹.
On to B5, for which the koff came to 0.023 s⁻¹ and the kon came out at 2280 M⁻¹ s⁻¹.
For B6, in that order: 0.0162 s⁻¹ and 5540 M⁻¹ s⁻¹.
For B7, in that order: 0.0361 s⁻¹ and 1.04e+06 M⁻¹ s⁻¹.

The next experiment has as its target T2, alpha-synuclein fibrils (UniProt P37840 1-140). The experiment in a line: SPR, captured bAb. On the procedure: as §1, §2, §3
With B1, the koff was 1.49e-05 s⁻¹ and the kon amounted to 73600 M⁻¹ s⁻¹.
For B2, in that order: 6.13e-05 s⁻¹ and 46700 M⁻¹ s⁻¹.
The like results for B3 were, in that order, 7.77e-06 s⁻¹ and 49200 M⁻¹ s⁻¹.
For B4, in that order: 0.000113 s⁻¹ and 10500 M⁻¹ s⁻¹.
Take B5: the koff came to 0.000315 s⁻¹ and the kon was found to be 13500 M⁻¹ s⁻¹.
For B6, in that order: 0.000472 s⁻¹ and 7650 M⁻¹ s⁻¹.
In turn, B7 showed a koff of 0.000418 s⁻¹ and a kon of 8220 M⁻¹ s⁻¹.

The target in the next experiment is T1, monomeric alpha-synuclein. The experiment in a line: SPR, captured bAb; head says nM, kd/ka gives M. Here is the method: as §1, §2, §3
B1 yielded a Kd of 0.903 nM.
The molecule B2 registered a Kd of 3.82 nM.
Still for that read-out and setting: with B3 the figure was 0.486 nM; with B4, 8.82 nM.
B5: the Kd came to 10100 nM.
Same read-out and setting: the same measure for B6: 2920 nM; for B7: 34.8 nM.

The target of a further experiment is T2, alpha-synuclein fibrils. Kind of experiment: SPR, captured bAb; head says nM, kd/ka gives M. Here is the method: as §1, §2, §3
In turn, B1 had a Kd of 0.203 nM.
Still for that read-out and setting: with B2 the figure was 1.31 nM; with B3, 0.158 nM.
B4 came in with a Kd of 10.8 nM.
B5: binding was put at a Kd of 23.4 nM.
As to B6, the affinity, expressed as Kd, was 61.7 nM.
For B7, the dissociation constant (Kd) turned out to be 50.8 nM.

The next experiment deals with T1, monomeric alpha-synuclein. Kind of experiment: SPR, captured mAb. On the procedure:
(§4) Non-covalent immobilization of alpha-synuclein antibodies was performed using a target immobilization method of 2000 response units (RU). Antibodies were diluted in 10 mM sodium acetate pH 5.5 (GE Healthcare, BR-1003-52) to a final concentration of 5 μg/mL.
(§5) Binding affinity of alpha-synuclein antibodies to monomeric or fibrillar alpha-synuclein species was performed using a single-cycle kinetics method. The instrument was primed with 1×HBS-P+ buffer (10× stock from GE Healthcare, BR-1003-52 diluted in Milli-Q water). Injections of monomeric alpha-synuclein (aSyn) (Boston Biochem, SP-485), increasing in concentration from 0.62-50 nM prepared from serial 2-fold dilutions, were performed with contact times of 300 sec/injection at a flow rate of 30 μL/min. A dissociation phase of 900 sec followed the final 50 nM injection. Regeneration of the sensor to the goat anti-mouse antibody layer was achieved using 3 regenerations of 10 mM Glycine pH 1.7. […] Regeneration of the sensor to the goat anti-mouse antibody layer was achieved using 3 regenerations of 10 mM Glycine pH 1.7. Results obtained from single-cycle kinetics were evaluated by Biacore T200 evaluation software with 1:1 binding homogenous Langmuir model (with a global Rmax) with Cycle 5 as a blank subtraction. The following kinetic parameters were obtained: on-rate (ka), off-rate (kd), affinity constant (KD, ratio of kd by ka), maximum response (Rmax), and goodness of fit (Chi2).
(§6) Non-covalent capture of the alpha-synuclein antibodies was performed in three separate runs.
Take B8: the Kd amounted to 3.26 nM, the koff worked out at 0.000651 s⁻¹ and the kon was found to be 200000 M⁻¹ s⁻¹.
The molecule B9 yielded a Kd of 96.4 nM, a koff of 0.044 s⁻¹ and a kon of 457000 M⁻¹ s⁻¹.

For a further experiment, the target named is T2, alpha-synuclein fibrils. Kind of experiment: SPR, captured mAb. Here is the method: as §4, §5, §6
Take B8: binding was characterised by a dissociation constant (Kd) of 134 nM, the koff was found to be 0.000987 s⁻¹ and the kon was 7350 M⁻¹ s⁻¹.
For B9, in that order: 37.9 nM, 0.000599 s⁻¹ and 15800 M⁻¹ s⁻¹.

The koff is the rate constant with which the complex falls apart. Low readings indicate slow dissociation, high ones fast dissociation. As a reminder, the kon is the rate constant with which the complex forms. A higher kon goes with fast association. By Kd is commonly meant the concentration at which binding is half-saturated. Lower therefore signals tighter binding.
